Data as given in the supplement of paper PMC10126150.
± gives the standard deviation of the averaged measurements.

Each sequence was assayed on ATP (assay: switch fluorescence ratio, 500 uM ATP over buffer (Cy3 cluster intensity, sum of 5 cycles each) (fold (ratio)); higher = stronger signal-on switching upon ATP binding; sequences stand for … in TCGTCGGCAGCGTCAGATGTGTATAAGAGACAGTTTTTTTTTTTTTTTTTTTTTTTTT…TC). Details: aptamer strand: ATP DNA aptamer (quencher-CACCTGGGGGAGTATTGCGGAGGAAGG + anchor), 100 nM annealed; ATP concentration: 500 uM.
Outline: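 Between each of five buffer/ATP cycles, the flow-cell was stripped with NaOH and re-annealed. Each cycle imaged Cy3-labelled switching-strand clusters, annealed to 100 nM quencher-labelled ATP aptamer on a modified Illumina MiSeq flow-cell, first in selection buffer and then after 15 min with 500 uM ATP at 22 °C. The fluorescence ratio is summed target-cycle over summed buffer-cycle Cy3 intensity per cluster, averaged per switch-domain sequence, with clusters outside 100-1000 RFU excluded.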
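Also: ATP exposure 15 min at 22 °C before imaging.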

Sequence | switch fluorescence ratio
TAGTCCATCG | 0.998 ± 0.012
TAGTCCTATG | 0.969 ± 0.021
TAGTCGCGTC | 1.004 ± 0.0066
TAGTCGGGGA | 1.03 ± 0.059
TAGTCGGTGG | 0.9978 ± 0.0032
TAGTCTGCGT | 1.04 ± 0.037
TAGTCTGGGC | 0.986 ± 0.037
TAGTGACTAG | 1.05 ± 0.021
TAGTGAGTCC | 1.08 ± 0.1
TAGTGCGGGA | 1.02 ± 0.073
TAGTGGGGCC | 1.01 ± 0.019
TAGTGGGGGG | 0.989 ± 0.026
TAGTGGTTCG | 1.02 ± 0.023
TAGTGTGGGG | 1.04 ± 0.034
TAGTGTGTTT | 0.9823 ± 0.0095
TAGTGTTGTG | 0.971 ± 0.055
TAGTTAGGGT | 0.9959 ± 0.0093
TAGTTAGTGA | 0.986 ± 0.034
TAGTTATGGT | 1.04 ± 0.019
TAGTTATTAG | 1 ± 0.04
TAGTTATTGA | 1.01 ± 0.038
TAGTTCTTAA | 0.984 ± 0.064
TAGTTGGGCG | 0.984 ± 0.098
TAGTTGTAGG | 1.04 ± 0.051
TAGTTGTCCC | 1.02 ± 0.045

Sequence | switch fluorescence ratio
TAGTTGTTTG | 0.9989 ± 0.0085
TAGTTTAGTT | 1 ± 0.015
TAGTTTCTAC | 0.992 ± 0.033
TAGTTTGAAC | 1.01 ± 0.05
TAGTTTGGGC | 0.983 ± 0.019
TAGTTTTGGG | 0.9807 ± 0.0026
TAGTTTTTAT | 1.02 ± 0.014
TATAAACAGG | 0.998 ± 0.023
TATAAACGGG | 1 ± 0.024
TATAAACTTT | 1.01 ± 0.054
TATAAATTAG | 0.972 ± 0.026
TATAACCAGG | 1.33 ± 0.086
TATAAGAGAG | 1 ± 0.024
TATAAGTATA | 1.02 ± 0.011
TATAAGTGAG | 1.02 ± 0.037
TATAATCATT | 0.985 ± 0.028
TATAATCGAG | 1 ± 0.014
TATAATGCTC | 1.01 ± 0.014
TATAATGGTG | 0.976 ± 0.021
TATACAATGG | 1.01 ± 0.024
TATACAGGGG | 1.2 ± 0.024
TATACATGAG | 1.03 ± 0.021
TATACGACTC | 1.09 ± 0.068
TATACGTGGC | 0.939 ± 0.03
TATACTATGG | 1.01 ± 0.038

Sequence | switch fluorescence ratio
TATACTGGGA | 0.995 ± 0.012
TATACTGGGG | 1.03 ± 0.059
TATACTTTTT | 1.01 ± 0.021
TATAGAAAGT | 0.9981 ± 0.0066
TATAGAGGGA | 0.988 ± 0.02
TATAGCCTCG | 0.976 ± 0.017
TATAGGATT | 0.986 ± 0.015
TATAGGCCGG | 0.991 ± 0.02
TATAGGGAAT | 0.98384 ± 3.5e-05
TATAGGGAGT | 1.01 ± 0.014
TATAGGGCAT | 1.01 ± 0.032
TATAGGGGGA | 1.04 ± 0.024
TATAGGGGTC | 0.968 ± 0.014
TATAGGGTTG | 0.999 ± 0.033
TATAGTAACT | 1.03 ± 0.041
TATAGTCATT | 1.02 ± 0.022
TATAGTCGGG | 0.98 ± 0.025
TATAGTGAGG | 1.0603 ± 0.001
TATAGTGGGG | 1.043 ± 0.0078
TATAGTGGGT | 1.01 ± 0.067
TATAGTTTTG | 0.996 ± 0.021
TATATAACGG | 1.036 ± 0.01
TATATAGTCT | 1.024 ± 0.0086
TATATATGAC | 1.01 ± 0.022
TATATATGTA | 1.01 ± 0.05

Sequence | switch fluorescence ratio
TATATATTTG | 1.03 ± 0.029
TATATATTTT | 1.01 ± 0.029
TATATGCTGT | 0.98 ± 0.011
TATATGGCGA | 0.995 ± 0.031
TATATTACGA | 1.03 ± 0.013
TATATTATGC | 1.02 ± 0.011
TATATTCTTT | 1 ± 0.023
TATATTGCAT | 1.01 ± 0.015
TATATTTACC | 1.04 ± 0.044
TATATTTAGT | 0.973 ± 0.028
TATCAAAAGA | 1.03 ± 0.016
TATCAAATTA | 1.03 ± 0.011
TATCAATTCG | 0.997 ± 0.036
TATCACGCAT | 1.36 ± 0.018
TATCAGACAG | 1.011 ± 0.0095
TATCAGTAGG | 0.981 ± 0.021
TATCCACATA | 1.1 ± 0.013
TATCCAGGGG | 2.063 ± 0.0021
TATCCAGTGG | 1.01 ± 0.054
TATCCCGGCG | 0.9977 ± 0.0082
TATCCGAGGT | 1.16 ± 0.26
TATCCGGAAT | 1.79 ± 0.76
TATCGCAATG | 3.63 ± 0.32
TATCGGCGAG | 1.02 ± 0.046
TATCGGGAGC | 0.986 ± 0.026
